Data: US20210087286A1 (Amgen, published 2021)

T1: human GIPR (human, UniProt P48546 22-466)
T1 sequence: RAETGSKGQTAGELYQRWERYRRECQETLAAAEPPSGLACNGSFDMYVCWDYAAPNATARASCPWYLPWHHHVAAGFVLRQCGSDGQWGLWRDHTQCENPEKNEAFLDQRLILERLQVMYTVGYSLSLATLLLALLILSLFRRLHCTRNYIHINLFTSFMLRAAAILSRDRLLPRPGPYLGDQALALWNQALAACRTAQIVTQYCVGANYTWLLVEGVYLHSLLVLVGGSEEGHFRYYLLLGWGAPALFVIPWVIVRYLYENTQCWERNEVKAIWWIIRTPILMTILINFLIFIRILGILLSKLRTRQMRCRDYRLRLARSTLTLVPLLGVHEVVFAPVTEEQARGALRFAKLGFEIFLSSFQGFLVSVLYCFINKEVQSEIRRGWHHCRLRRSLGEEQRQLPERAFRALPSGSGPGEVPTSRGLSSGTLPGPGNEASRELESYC

T2: huGIPR ECD (human, UniProt P48546 21-129, limits assumed)
T2 construct: Soluble analyte of the Biacore assay; also called human GIPR extracellular domain
T2 sequence: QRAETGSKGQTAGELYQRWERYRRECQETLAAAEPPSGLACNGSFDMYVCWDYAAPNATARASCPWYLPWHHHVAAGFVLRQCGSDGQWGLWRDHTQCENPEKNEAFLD

B1: 2G10.327 (antibody, human IgG1, kappa, N297G, V domains shown)
VH: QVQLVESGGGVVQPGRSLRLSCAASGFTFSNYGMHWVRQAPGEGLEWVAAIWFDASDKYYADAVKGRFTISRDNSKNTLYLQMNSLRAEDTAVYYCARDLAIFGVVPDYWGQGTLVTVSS
VL: EIVMTQSPATLSVSPGERATLSCRASQSVHSHLAWYQQKPGQAPRLLIYEAATRATGIPARFSGSGSGTEFTLTISSLQSEDFAVYYCQQYNQWPLTFGGGTKVEIKR
B2: 2G10.330 (antibody, human IgG1, kappa, N297G, V domains shown)
VH: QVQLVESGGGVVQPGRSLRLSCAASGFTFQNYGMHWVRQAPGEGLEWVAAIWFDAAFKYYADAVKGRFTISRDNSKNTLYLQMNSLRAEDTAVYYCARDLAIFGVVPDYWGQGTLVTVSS
VL: EIVMTQSPATLSVSPGERATLSCRASQSVDQHLAWYQQKPGQAPRLLIYQAATRATGIPARFSGSGSGTEFTLTISSLQSEDFAVYYCQQYQNWPLTFGGGTKVEIKR
notes: also called SS-26207
B3: 2G10.342 (antibody, human IgG1, kappa, N297G, V domains shown)
VH: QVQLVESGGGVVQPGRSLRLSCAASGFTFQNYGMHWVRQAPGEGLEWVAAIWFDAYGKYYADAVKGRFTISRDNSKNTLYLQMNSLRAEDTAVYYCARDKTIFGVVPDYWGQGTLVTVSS
VL: EIVMTQSPATLSVSPGERATLSCRASQSVERHLAWYQQKPGQAPRLLIYEAATRATGIPARFSGSGSGTEFTLTISSLQSEDFAVYYCQQYQQWPLTFGGGTKVEIKR
B4: 2G10.603 (antibody, human IgG1, kappa, N297G, V domains shown)
VH: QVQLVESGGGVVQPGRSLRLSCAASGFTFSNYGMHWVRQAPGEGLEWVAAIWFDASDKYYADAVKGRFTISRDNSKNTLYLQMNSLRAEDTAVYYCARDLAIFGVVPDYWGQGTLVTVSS
VL: EIVMTQSPATLSVSPGERATLSCRASQSVDRHLAWYQQKPGQAPRLLIYEAATRATGIPARVSGSGSGTEFTLTISSLQSEDFAVYYCQQYQNWPLTFGGGTKVEIKR
notes: also called SS-26228
B5: 2G10.340 (antibody, human IgG1, kappa, N297G, V domains shown)
VH: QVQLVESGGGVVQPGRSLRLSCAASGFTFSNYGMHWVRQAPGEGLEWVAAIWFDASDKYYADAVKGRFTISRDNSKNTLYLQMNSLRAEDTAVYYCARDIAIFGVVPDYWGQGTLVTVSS
VL: EIVMTQSPATLSVSPGERATLSCRASQSVHTNLAWYQQKPGQAPRLLIYNAATRATGIPARFSGSGSGTEFTLTISSLQSEDFAVYYCQQYQNWPLTFGGGTKVEIKR
B6: 2G10.334 (antibody, human IgG1, kappa, N297G, V domains shown)
VH: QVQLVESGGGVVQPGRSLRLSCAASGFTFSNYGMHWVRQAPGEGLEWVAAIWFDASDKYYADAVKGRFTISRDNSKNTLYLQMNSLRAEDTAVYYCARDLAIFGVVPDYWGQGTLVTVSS
VL: EIVMTQSPATLSVSPGERATLSCRASQSVNLNLAWYQQKPGQAPRLLIYQAATRATGIPARFSGSGSGTEFTLTISSLQSEDFAVYYCQQYNQWPLTFGGGTKVEIKR
notes: also called SS-26211
B7: 2G10.343 (antibody, human IgG1, kappa, N297G, V domains shown)
VH: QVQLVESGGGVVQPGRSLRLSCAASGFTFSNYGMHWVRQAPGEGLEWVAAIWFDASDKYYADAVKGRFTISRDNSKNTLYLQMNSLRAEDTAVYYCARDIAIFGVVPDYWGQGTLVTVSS
VL: EIVMTQSPATLSVSPGERATLSCRASQSVLEHLAWYQQKPGQAPRLLIYEAATRATGIPARFSGSGSGTEFTLTISSLQSEDFAVYYCQQYNNWPLTFGGGTKVEIKR
B8: 2G10.337 (antibody, human IgG1, kappa, N297G, V domains shown)
VH: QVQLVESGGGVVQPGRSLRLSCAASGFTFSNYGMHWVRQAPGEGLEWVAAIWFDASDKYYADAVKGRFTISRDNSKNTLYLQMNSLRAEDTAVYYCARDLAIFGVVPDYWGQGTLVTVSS
VL: EIVMTQSPATLSVSPGERATLSCRASQSVDVNLAWYQQKPGQAPRLLIYEAATRATGIPARFSGSGSGTEFTLTISSLQSEDFAVYYCQQYNQWPLTFGGGTKVEIKR
notes: also called SS-26214
B9: 2G10.604 (antibody, human IgG1, kappa, N297G, V domains shown)
VH: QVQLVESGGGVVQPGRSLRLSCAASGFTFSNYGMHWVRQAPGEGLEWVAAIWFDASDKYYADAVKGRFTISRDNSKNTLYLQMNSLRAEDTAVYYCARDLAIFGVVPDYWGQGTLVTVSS
VL: EIVMTQSPATLSVSPGERATLSCRASQSVNRHLAWYQQKPGQAPRLLIYEAATRATGIPARVSGSGSGTEFTLTISSLQSEDFAVYYCQQYQNWPLTFGGGTKVEIKR
notes: also called SS-26229
B10: 2G10.335 (antibody, human IgG1, kappa, N297G, V domains shown)
VH: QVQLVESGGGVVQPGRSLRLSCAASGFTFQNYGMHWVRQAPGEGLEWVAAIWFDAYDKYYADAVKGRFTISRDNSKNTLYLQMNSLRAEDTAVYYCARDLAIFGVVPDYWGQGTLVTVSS
VL: EIVMTQSPATLSVSPGERATLSCRASQSVTSHLAWYQQKPGQAPRLLIYEAATRATGIPARFSGSGSGTEFTLTISSLQSEDFAVYYCQQYNQWPLTFGGGTKVEIKR
notes: also called SS-26212
B11: 2G10.347 (antibody, human IgG1, kappa, N297G, V domains shown)
VH: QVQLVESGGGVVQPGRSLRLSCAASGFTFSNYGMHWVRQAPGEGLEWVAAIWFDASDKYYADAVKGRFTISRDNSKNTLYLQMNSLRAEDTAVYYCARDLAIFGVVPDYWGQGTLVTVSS
VL: EIVMTQSPATLSVSPGERATLSCRASQSVSSNLAWYQQKPGQAPRLLIYGAATRATGIPARFSGSGSGTEFTLTISSLQSEDFAVYYCQQYNNWPLTFGGGTKVEIKR
B12: 2G10.341 (antibody, human IgG1, kappa, N297G, V domains shown)
VH: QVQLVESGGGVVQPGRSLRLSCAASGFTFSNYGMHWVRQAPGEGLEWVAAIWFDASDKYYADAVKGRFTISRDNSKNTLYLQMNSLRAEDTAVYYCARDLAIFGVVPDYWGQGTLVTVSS
VL: EIVMTQSPATLSVSPGERATLSCRASQSVDVHLAWYQQKPGQAPRLLIYEAATRATGIPARFSGSGSGTEFTLTISSLQSEDFAVYYCQQYNQWPLTFGGGTKVEIKR
B13: 2G10.331 (antibody, human IgG1, kappa, N297G, V domains shown)
VH: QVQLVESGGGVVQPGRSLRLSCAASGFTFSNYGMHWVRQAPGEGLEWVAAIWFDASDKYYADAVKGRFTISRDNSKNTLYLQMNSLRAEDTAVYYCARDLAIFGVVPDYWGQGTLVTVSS
VL: EIVMTQSPATLSVSPGERATLSCRASQSVDLHLAWYQQKPGQAPRLLIYEAATRATGIPARFSGSGSGTEFTLTISSLQSEDFAVYYCQQYQNWPLTFGGGTKVEIKR
notes: also called SS-26208
B14: 2G10.328 (antibody, human IgG1, kappa, N297G, V domains shown)
VH: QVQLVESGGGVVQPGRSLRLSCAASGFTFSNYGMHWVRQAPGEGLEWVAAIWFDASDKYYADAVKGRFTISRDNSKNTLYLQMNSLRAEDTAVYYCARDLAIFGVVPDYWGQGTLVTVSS
VL: EIVMTQSPATLSVSPGERATLSCRASQSVSEHLAWYQQKPGQAPRLLIYEAATRATGIPARFSGSGSGTEFTLTISSLQSEDFAVYYCQQYQNWPLTFGGGTKVEIKR
B15: 2G10.338 (antibody, human IgG1, kappa, N297G, V domains shown)
VH: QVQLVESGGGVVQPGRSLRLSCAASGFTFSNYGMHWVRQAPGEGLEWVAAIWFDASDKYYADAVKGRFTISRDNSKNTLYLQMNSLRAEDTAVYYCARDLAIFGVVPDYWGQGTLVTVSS
VL: EIVMTQSPATLSVSPGERATLSCRASQSVHHHLAWYQQKPGQAPRLLIYEAATRATGIPARFSGSGSGTEFTLTISSLQSEDFAVYYCQQYNQWPLTFGGGTKVEIKR
B16: 2G10.601 (antibody, human IgG1, kappa, N297G, V domains shown)
VH: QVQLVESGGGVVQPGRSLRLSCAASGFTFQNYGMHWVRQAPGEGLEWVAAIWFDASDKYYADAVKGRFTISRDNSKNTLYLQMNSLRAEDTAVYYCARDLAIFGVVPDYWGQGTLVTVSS
VL: EIVMTQSPATLSVSPGERATLSCRASQSVFSHLAWYQQKPGQAPRLLIYEAATRATGIPARVSGSGSGTEFTLTISSLQSEDFAVYYCQQYQNWPLTFGGGTKVEIKR
notes: also called SS-26226
B17: 2G10.345 (antibody, human IgG1, kappa, N297G, V domains shown)
VH: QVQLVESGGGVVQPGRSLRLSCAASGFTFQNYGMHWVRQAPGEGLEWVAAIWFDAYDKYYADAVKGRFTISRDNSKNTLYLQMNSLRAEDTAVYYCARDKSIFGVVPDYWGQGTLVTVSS
VL: EIVMTQSPATLSVSPGERATLSCRASQSVNRHLAWYQQKPGQAPRLLIYEAATRATGIPARFSGSGSGTEFTLTISSLQSEDFAVYYCQQYNNWPLTFGGGTKVEIKR
B18: 2G10.339 (antibody, human IgG1, kappa, N297G, V domains shown)
VH: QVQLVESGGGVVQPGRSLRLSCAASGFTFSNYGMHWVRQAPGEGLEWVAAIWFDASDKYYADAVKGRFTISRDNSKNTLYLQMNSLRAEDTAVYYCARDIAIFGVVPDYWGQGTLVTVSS
VL: EIVMTQSPATLSVSPGERATLSCRASQSVFQNLAWYQQKPGQAPRLLIYQAATRATGIPARFSGSGSGTEFTLTISSLQSEDFAVYYCQQYNQWPLTFGGGTKVEIKR
B19: 2G10.329 (antibody, human IgG1, kappa, N297G, V domains shown)
VH: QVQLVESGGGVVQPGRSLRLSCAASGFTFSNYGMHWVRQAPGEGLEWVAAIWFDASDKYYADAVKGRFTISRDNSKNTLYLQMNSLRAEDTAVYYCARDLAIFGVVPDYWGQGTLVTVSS
VL: EIVMTQSPATLSVSPGERATLSCRASQSVEQHLAWYQQKPGQAPRLLIYEAATRATGIPARFSGSGSGTEFTLTISSLQSEDFAVYYCQQYNNWPLTFGGGTKVEIKR
notes: also called SS-26206
B20: 2G10.336 (antibody, human IgG1, kappa, N297G, V domains shown)
VH: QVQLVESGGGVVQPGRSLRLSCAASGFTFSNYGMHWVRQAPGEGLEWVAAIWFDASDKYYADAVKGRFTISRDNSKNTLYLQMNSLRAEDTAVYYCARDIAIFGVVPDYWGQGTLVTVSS
VL: EIVMTQSPATLSVSPGERATLSCRASQSVQSHLAWYQQKPGQAPRLLIYEAATRATGIPARFSGSGSGTEFTLTISSLQSEDFAVYYCQQYQNWPLTFGGGTKVEIKR
notes: also called SS-26213
B21: 2G10.332 (antibody, human IgG1, kappa, N297G, V domains shown)
VH: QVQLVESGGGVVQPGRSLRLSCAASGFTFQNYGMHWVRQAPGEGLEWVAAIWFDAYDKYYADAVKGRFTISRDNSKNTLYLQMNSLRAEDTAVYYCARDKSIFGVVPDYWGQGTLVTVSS
VL: EIVMTQSPATLSVSPGERATLSCRASQSVLSHLAWYQQKPGQAPRLLIYEAATRATGIPARFSGSGSGTEFTLTISSLQSEDFAVYYCQQYNNWPLTFGGGTKVEIKR
notes: also called SS-26209
B22: 2G10.602 (antibody, human IgG1, kappa, N297G, V domains shown)
VH: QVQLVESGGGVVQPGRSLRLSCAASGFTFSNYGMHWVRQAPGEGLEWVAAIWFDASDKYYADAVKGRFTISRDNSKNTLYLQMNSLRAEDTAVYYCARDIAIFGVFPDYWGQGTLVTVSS
VL: EIVMTQSPATLSVSPGERATLSCRASQSVFEHLAWYQQKPGQAPRLLIYEAATRATGIPARVSGSGSGTEFTLTISSLQSEDFAVYYCQQYNNWPLTFGGGTKVEIKR
notes: also called SS-26227
B23: 2G10.344 (antibody, human IgG1, kappa, N297G, V domains shown)
VH: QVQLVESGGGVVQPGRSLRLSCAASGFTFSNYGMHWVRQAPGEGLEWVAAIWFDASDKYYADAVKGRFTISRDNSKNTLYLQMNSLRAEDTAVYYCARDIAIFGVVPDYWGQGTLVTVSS
VL: EIVMTQSPATLSVSPGERATLSCRASQSVSSHLAWYQQKPGQAPRLLIYEAATRATGIPARFSGSGSGTEFTLTISSLQSEDFAVYYCQQYQQWPLTFGGGTKVEIKR
B24: 2G10.333 (antibody, human IgG1, kappa, N297G, V domains shown)
VH: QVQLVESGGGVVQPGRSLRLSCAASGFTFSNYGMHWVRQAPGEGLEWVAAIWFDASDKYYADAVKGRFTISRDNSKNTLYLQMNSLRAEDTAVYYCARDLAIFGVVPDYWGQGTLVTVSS
VL: EIVMTQSPATLSVSPGERATLSCRASQSVSRHLAWYQQKPGQAPRLLIYEAATRATGIPARFSGSGSGTEFTLTISSLQSEDFAVYYCQQYQHWPLTFGGGTKVEIKR
notes: also called SS-26210

What was measured:
human GIPR = target: T1, human GIPR; test: cell-based or functional assay
huGIPR ECD = target: T2, huGIPR ECD; test: SPR (Biacore T200), mAb captured via goat anti-huFc, 200 nM huGIPR ECD analyte
Experimental: Immobilization of Goat-anti-huFc antibody to a S-CM5 sensor chip surface was performed according to manufacturer's instructions. The Biacore instrument running buffer is 0.005% P20/PBS 1×, pH7.4, no calcium chloride, no magnesium chloride. Briefly, carboxyl groups on the sensor chip surfaces were activated by injecting 60 μL of a mixture containing 0.2 M N-ethyl-N′-(dimethylaminopropyl) carbodiimide (EDC) and 0.05 M N-hydroxysuccinimide (NHS). Goat-anti-huFc antibody was diluted in 10 mM sodium acetate, pH 4.0 at 20 μg/ml and injected over the activated chip surface at 30 uL/min for 6 minutes. Excess reactive groups on the surfaces were deactivated by injecting 60 μL of 1 M ethanolamine. Final immobilized level was ˜8000 resonance units (RU).
Binding assays were carried out on the immobilized goat anti-huFc antibody surface by Biacore T200. The experiment was performed at 25° C. The instrument running buffer was 0.005% P20/PBS. The goat anti-huFc capture antibody was covalently attached to the sensor chip surface via standard amine coupling to flow cells channel 1-4. The anti-huGIPR antibodies were diluted in sample buffer (0.1 mg/ml BSA, 0.005% P20, PBS) to ˜10 nM then captured to flow cells channel 2, 3, 4. Flow cell channel 1 was as a blank reference surface without injection of anti-huGIPR antibody. The captured antibody response range was ˜250 RU. Then 200 nM huGIPR ECD was injected over the goat anti-huFc antibody captured anti-huGIPR antibody surfaces at flow rate 50 ul/min for 3 minutes. After a 10 minutes dissociation, each surface was regenerated by injecting 10 mM Glycine, pH 1.5 for 30 seconds twice.

Row | Binder | cAMP IC50 (human GIPR) | koff (huGIPR ECD)
1 | B1 | 19.3 nM | < 5e-05 s⁻¹
2 | B2 | 18.6 nM | < 5e-05 s⁻¹
3 | B3 | 11.6 nM | < 5e-05 s⁻¹
4 | B4 | 30.5 nM | < 5e-05 s⁻¹
5 | B5 | 25.9 nM | 6e-05 s⁻¹
6 | B6 | 13.7 nM | 6e-05 s⁻¹
7 | B7 | 37.6 nM | 6e-05 s⁻¹
8 | B8 | 32.5 nM | < 5e-05 s⁻¹
9 | B9 | 27.1 nM | < 5e-05 s⁻¹
10 | B10 | 25.9 nM | 6e-05 s⁻¹
11 | B11 | 28.4 nM | 0.0001 s⁻¹
12 | B12 | 24.7 nM | 7e-05 s⁻¹
13 | B13 | 19.7 nM | 5e-05 s⁻¹
14 | B14 | 24.4 nM | 7e-05 s⁻¹
15 | B15 | 23.4 nM | 8e-05 s⁻¹
16 | B16 | 21.4 nM | 6e-05 s⁻¹
17 | B17 | 18.9 nM | 8e-05 s⁻¹
18 | B18 | 22.6 nM | 7e-05 s⁻¹
19 | B19 | 26.8 nM | 6e-05 s⁻¹
20 | B20 | 29.6 nM | 0.0002 s⁻¹
21 | B21 | 12.9 nM | 6e-05 s⁻¹
22 | B22 | 16.8 nM | < 5e-05 s⁻¹
23 | B23 | 21.9 nM | 6e-05 s⁻¹
24 | B24 | 12.1 nM | < 5e-05 s⁻¹
